The text below walks through data of the supplement of paper PMC9170038.

The subject of the data set is MS2 coat protein. Kind of data set: apparent KD of MS2 coat protein; designed switch direction (-1 OFF switch, 1 ON switch): -1; higher = weaker reporter binding. Summed up: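 SNAP-549-labelled MS2 coat protein was titrated, doubling from 0.7 or 1.5 nM to 3 µM, over designed RNA switches transcribed on Illumina chips by stalled E. coli RNA polymerase. Runs were done without input, with 200 uM small-molecule ligand, or with an oligonucleotide input. Apparent KD is the per-design median over clusters of curve-fitted normalised fluorescence.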

[1] abbreviates: Eterna round: R95, input ligand: microRNA oligo, concentration not stated.
[2] abbreviates: Eterna round: R95, input ligand: FMN 200 uM.
Where [3] appears, read: Eterna round: R95, input ligand: none.
The mark [4] stands for this setting: input ligand: microRNA oligo, concentration not stated.

On to “CUUUUGUGAGGAUAUCAGUAGUAAAAAAAUAAAAUUACUACUGAGAAGGUACAUGAGGAUCACCCAUGUUCCUC [salish99_ex4_r3_031] (puzzle: Exclusion 4)”, for which the “apparent KD of MS2 coat protein” value under setting [1] worked out at 15.1 nM.
In the case of “AAGUACCGUCACGAUAGUGAUGGUACAACAGGCAGUGAAACAUGAGGAUCACCCAUGUCCUCAAUUGCUCGUCUUAU [Sensor 3 - 77] (puzzle: Sensor v3, turn-off variant 2)”, the “apparent KD of MS2 coat protein” value under setting [2] is 77.6 nM, the “apparent KD of MS2 coat protein” value under setting [1] turned out to be 192 nM and the “apparent KD of MS2 coat protein” value under setting [3] turned out to be 98.7 nM.
In the same order, the values of “AAGAAACAUGAGGAUCACCCAUGUGAGGAUAUGAUGAGUAUUAUGUAUGUAGUAUGAAUCAGAAGGCACAAAGG [Mat - Mod Mix D40] (puzzle: Exclusion 1)” are 224 nM, 95 nM and 158 nM.
In the case of “CGUGCGUAUGUGAGGAUAUGCUGGUCCUUGGAUCGGCAGAAGGCACAUGAGGAUCACCCAUGUGGUGUCGUACU [salish99_Bmod_ex4_081] (puzzle: Brourd's mod of Exclusion 4)”, the “apparent KD of MS2 coat protein” value under setting [1] was 216 nM.
As to “GUAGAGUCAGGAUAUACAAGAUCGAAAGAUCGGCGAUCCAUACAUGAGGAUCACCCAUGUAGAAGGGACUCUAC [Eli x2 4.003] (Eterna round: R97, puzzle: Exclusion 2)”, the “apparent KD of MS2 coat protein” value is, setting by setting: (input ligand: FMN 200 uM) 560 nM; (input ligand: none) 33.4 nM.
Taken in the same sequence, the figures for “GUUAAUUGUGACAUGGGUGACAUGAGGAUCACCCAUGUCACAAGCUUUUUGCUCGUCUUAUAAUUAACCCAUGUCAC [Stov1/13-A2] (Eterna round: R97, puzzle: Sensor, turn-off variant 1)” were 29.1 nM and 41.2 nM.
“AAUUCACAUGAGGAUCACCCAUGUCAGGAUAUGGUUUCACGUUUUUCUUUGCUUGAGGCCAGAAGGGACAGCUA (puzzle: Exclusion 1)”: the “apparent KD of MS2 coat protein” value under setting [1] came to 54.2 nM.
As to “UUUAAUUUUUUUUUUUUACAAGCUUUUUGCUCGUCUUAUACAUGAGGAUCACCCAUGUAAGUGGAAGAUAAAUUAUC [JMF 10] (puzzle: Sensor v3, turn-off variant 2)”, the “apparent KD of MS2 coat protein” value runs as follows: under setting [2], 18.2 nM; under setting [1], 21.4 nM; under setting [3], 16.5 nM.
Consider “GUGGUACAUGAGGAUCACCCAUGUUAGGAUAUCGCGUGAGGUUUUACUUCCGCACGCGCGAGAAGGGACGUCUU (puzzle: Exclusion 1)”, for which the “apparent KD of MS2 coat protein” value under setting [1] is 28.9 nM.
Consider “CAGUGACAUGAGGAUCACCCAUGUUAGGAUAUCCGCAAAGGGAGUAGGAUUCCCAUUUGGAGAAGGGACAGGUG [Eternabot (L1) Solution 95] (Eterna round: R97, puzzle: Exclusion 1)”, for which the “apparent KD of MS2 coat protein” value is, setting by setting: (input ligand: FMN 200 uM) 72.5 nM; (input ligand: none) 52.6 nM.
In the case of “UUUAAUUUUUUUUUUUUACAAGCUUUUUGCUCGUCUUAUACAUGAGGAUCACCCAUGUGGGUGGGAAGUAAAUUAUC [JMF 56] (puzzle: Sensor v3, turn-off variant 2)”, the “apparent KD of MS2 coat protein” value runs as follows: under setting [2], 59 nM; under setting [1], 12.6 nM; under setting [3], 110 nM.
As to “CUAUGGCAAGGAUAUACGUAUCAUGUGACGAUAGCUCAAGAACAUGAGGAUCACCCAUGUAGAAGGUGCGGAGA [Eternabot (L1) Solution 90] (Eterna round: R97, puzzle: Exclusion 2)”, the “apparent KD of MS2 coat protein” value by setting is: (input ligand: FMN 200 uM) 54.2 nM; (input ligand: none) 54.6 nM.
As for “GAGGUGUUAGGAUAUCGGAGAUGGAGACCAACGGGAUGAGCCGAGAAGGAACAUGAGGAUCACCCAUGUAGGUG [JR_Exclu4_Sub032] (puzzle: Exclusion 4)”, the “apparent KD of MS2 coat protein” value runs as follows: under setting [2], 345 nM; under setting [1], 755 nM; under setting [3], 763 nM.
As to “GCUAACCGAGGAUAUACAUGAGGAUCACCCAUGUUCGAUAUCCUCAUUAGAACUACAUGUAGAAGGCGGUAAGC [Eternabot (Original) Solution 2] (Eterna round: R97, puzzle: Exclusion 3)”, the “apparent KD of MS2 coat protein” value reads like this: (input ligand: FMN 200 uM) 15.2 nM; (input ligand: none) 13.8 nM.
In the same order, the values of “CUAACAUGCUGGUGAUCAUACAUGAGGAUCACCCAUGUAACAAGCUUUUUGCUCGUCUUAUAAGAUUACUAGUAUGU [Stov1/10-A4] (Eterna round: R97, puzzle: Sensor, turn-off variant 1)” are 21.4 nM and 21.9 nM.
In the same order, the values of “AAGCAGCGAGGAUAUGCUUGCGCGUGUCCUAGUUGAAAUAAACUUGAGGAUCACCCAAGUAGAAGGCGCAACCC [EX2 #42] (Eterna round: R97, puzzle: Exclusion 2)” are 197 nM and 41.9 nM.
Consider “AGCUAGUCAGGAUAUACAAACAUGUCAAAAGACGUGAAGAGACAUGAGGAUCACCCAUGUAGAAGGGACUAGCA [Mat - Exclusion 2 - JL mod - D13] (Eterna round: R96, puzzle: Exclusion 2)”, for which the “apparent KD of MS2 coat protein” value is 88.1 nM (input ligand: FMN 200 uM), 15.7 nM under setting [4] and 22.9 nM (input ligand: none).
Turning to “GGUUGGCGAGGAUAUACAUGAGGAUCACCCAUGUGGUCCUAAGGCUGAUCAAGCCUAUGUAGAAGGCGCAAAUC [salish99_ex3_r4_010] (Eterna round: R97, puzzle: Exclusion 3)”, the “apparent KD of MS2 coat protein” value by setting is: (input ligand: FMN 200 uM) 37.7 nM; (input ligand: none) 223 nM.
Taken in the same sequence, the figures for “CAGUACUGAGGAUAUACAUGAGGAUCACCCAUGUGUCUUCAAUUAGGAAACUAGUUAUGUAGAAGGCAGUACUG [Omei Ex3 Mod of Eli 4.27 v9] (Eterna round: R97, puzzle: Exclusion 3)” were 770 nM and 62.2 nM.
Take “UAUUAGCAAGUAAGGUCCCACAUGAGGAUCACCCAUGUGCUCGUCUUAUAAGGUACUGUGACGAAAGUCACGGUACC [Sensor 3, v1 - 95] (Eterna round: R96, puzzle: Sensor v3, turn-off variant 1)”: the “apparent KD of MS2 coat protein” value runs as follows: (input ligand: FMN 200 uM) 22 nM; under setting [4], 326 nM; (input ligand: none) 23.6 nM.
As to “GGUGCGUUUGUGAGGAUAUGCUGGUCCUUGGUUCGGCAGAAGGCACAUGAGGAUCACCCAUGUGGUGUCGCACC [salish99_Bmod_Ex4_049] (puzzle: Brourd's mod of Exclusion 4)”, the “apparent KD of MS2 coat protein” value under setting [1] is 65.9 nM.
As for “UAAGUGCUGCGAGGAUAUACAUGAGGAUCACCCAUGUGGAUGUCUGAGGCUUUGCCUCAGACGAUGUAGAAGGCGCAGUACAAU [Mat - Exclusion NG 2 - Mod of JL - D51] (Eterna round: R96, puzzle: Exclusion NG 2)”, the “apparent KD of MS2 coat protein” value came to 77.3 nM (input ligand: FMN 200 uM), 11.1 nM under setting [4] and 20.6 nM (input ligand: none).
Taken in the same sequence, the figures for “AGAAACUCAAGAGGAUAUCACAUGAGGAUCACCCAUGUAUAGCGCGCUAUGCUAGUCCUCGUAUUUGAGAAGGUUUGAAAUAAG [Mat - Exclusion NG 2 - Mod of JL - D79] (Eterna round: R96, puzzle: Exclusion NG 2)” were 29.8 nM, 12.5 nM and 18.3 nM.
For the sequence “AGGAAUCUAGGAUAUAUAUGAAACGAUCCAGAUUCAAGGAAACAUGAGGAUCACCCAUGUAGAAGGAGAGAAAA [EX2 A.17] (Eterna round: R97, puzzle: Exclusion 2)”, the “apparent KD of MS2 coat protein” value reads like this: (input ligand: FMN 200 uM) 23.4 nM; (input ligand: none) 21.5 nM.
